Measured values: article PMC6555819, “Comprehensive study of nuclear receptor DNA binding provides a revised framework for understanding receptor specificity”

B1: NRC3_random_hg19_49_o1 (dsDNA)
DNA 1: GCACAGAAGGTAGCAAAGTAATCATGCTAGTGGTCAGCGATTGACAGCGTAGAATGAAGG
DNA 2: CCTTCATTCTACGCTGTCAATCGCTGACCACTAGCATGATTACTTTGCTACCTTCTGTGC
B2: NRC3_wobSeed42_DR1_G22A_o1 (dsDNA)
DNA 1: GCTATACAGGGTCAAAGGCCAAAGTACGAATGTCGAGCGATTGACAGCGTAGAATGAAGG
DNA 2: CCTTCATTCTACGCTGTCAATCGCTCGACATTCGTACTTTGGCCTTTGACCCTGTATAGC
B3: NRC3_wobSeed85_DR3_C7A_o1 (dsDNA)
DNA 1: GCCGTCAAAGGTCAGAGAGGTCAGTGAATGCCGAGTGCGATTGACAGCGTAGAATGAAGG
DNA 2: CCTTCATTCTACGCTGTCAATCGCACTCGGCATTCACTGACCTCTCTGACCTTTGACGGC
B4: NRC3_wobSeed61_DR2_C7A_o1 (dsDNA)
DNA 1: GCCGTCAAAGGTCAGCAGGTCAGTGAAAGCGACGTGGCGATTGACAGCGTAGAATGAAGG
DNA 2: CCTTCATTCTACGCTGTCAATCGCCACGTCGCTTTCACTGACCTGCTGACCTTTGACGGC
B5: NRC3_random_hg19_127_o1 (dsDNA)
DNA 1: GCATGAGGTACTGATACATGCTACAATGTGTATGTAGCGATTGACAGCGTAGAATGAAGG
DNA 2: CCTTCATTCTACGCTGTCAATCGCTACATACACATTGTAGCATGTATCAGTACCTCATGC
B6: NRC3_random_hg19_205_o1 (dsDNA)
DNA 1: GCGAATCATCATGAGCTCAGAATGATCCTAGGCAGAGCGATTGACAGCGTAGAATGAAGG
DNA 2: CCTTCATTCTACGCTGTCAATCGCTCTGCCTAGGATCATTCTGAGCTCATGATGATTCGC
B7: NRC3_random_hg19_281_o1 (dsDNA)
DNA 1: GCTTGTTGCTTCTGTTCTACGCCAGTGACTTGGAAAGCGATTGACAGCGTAGAATGAAGG
DNA 2: CCTTCATTCTACGCTGTCAATCGCTTTCCAAGTCACTGGCGTAGAACAGAAGCAACAAGC
B8: NRC3_random_hg19_155_o1 (dsDNA)
DNA 1: GCGAGTGCTATGCTTGCTTTCTATCTCATACAGTATGCGATTGACAGCGTAGAATGAAGG
DNA 2: CCTTCATTCTACGCTGTCAATCGCATACTGTATGAGATAGAAAGCAAGCATAGCACTCGC
B9: NRC3_wobSeed10_DR0_G6A_o1 (dsDNA)
DNA 1: GCATCAAAAGGTCGAGGTGAGTATAGAGAAAGGGAAGCGATTGACAGCGTAGAATGAAGG
DNA 2: CCTTCATTCTACGCTGTCAATCGCTTCCCTTTCTCTATACTCACCTCGACCTTTTGATGC
B10: NRC3_wobSeed130_DR5_G22A_o1 (dsDNA)
DNA 1: GCCTCGAAAGGTCGTGCTCAGATGAGTATACCAAACGCGATTGACAGCGTAGAATGAAGG
DNA 2: CCTTCATTCTACGCTGTCAATCGCGTTTGGTATACTCATCTGAGCACGACCTTTCGAGGC
B11: NRC3_wobSeed125_DR5_C8G_o1 (dsDNA)
DNA 1: GCCCTTAGGGGTCACTGACAGGTTATAGCATTTGGAGCGATTGACAGCGTAGAATGAAGG
DNA 2: CCTTCATTCTACGCTGTCAATCGCTCCAAATGCTATAACCTGTCAGTGACCCCTAAGGGC
B12: NRC3_wobSeed36_DR1_T8G_o1 (dsDNA)
DNA 1: GCCCGACGGGGGCAAAGGTTACCATACTCAGTACGAGCGATTGACAGCGTAGAATGAAGG
DNA 2: CCTTCATTCTACGCTGTCAATCGCTCGTACTGAGTATGGTAACCTTTGCCCCCGTCGGGC
B13: NRC3_wobSeed58_DR2_G14A_o1 (dsDNA)
DNA 1: GCATCGAAAGGTCATGAGGTGAGTATACAGAAAGGCGCGATTGACAGCGTAGAATGAAGG
DNA 2: CCTTCATTCTACGCTGTCAATCGCGCCTTTCTGTATACTCACCTCATGACCTTTCGATGC
B14: NRC3_wobSeed5_DR0_C8G_o1 (dsDNA)
DNA 1: GCCCTTAGGGGTCAAGGTTATAGCACGGGTGGTACGGCGATTGACAGCGTAGAATGAAGG
DNA 2: CCTTCATTCTACGCTGTCAATCGCCGTACCACCCGTGCTATAACCTTGACCCCTAAGGGC
B15: NRC3_random_hg19_457_o1 (dsDNA)
DNA 1: GCAGCTGCATCCATGTTGCTGCAAAGGACATGACTTGCGATTGACAGCGTAGAATGAAGG
DNA 2: CCTTCATTCTACGCTGTCAATCGCAAGTCATGTCCTTTGCAGCAACATGGATGCAGCTGC
B16: NRC3_random_hg19_212_o1 (dsDNA)
DNA 1: GCAAGCATCCAGGACAAGGAAAGAGTAATCAATGGCGCGATTGACAGCGTAGAATGAAGG
DNA 2: CCTTCATTCTACGCTGTCAATCGCGCCATTGATTACTCTTTCCTTGTCCTGGATGCTTGC
B17: NRC3_random_hg19_112_o1 (dsDNA)
DNA 1: GCATCTGGCATATGTTCACTCCATGTACCACAGATAGCGATTGACAGCGTAGAATGAAGG
DNA 2: CCTTCATTCTACGCTGTCAATCGCTATCTGTGGTACATGGAGTGAACATATGCCAGATGC
B18: NRC3_wobSeed77_DR3_G19C_o1 (dsDNA)
DNA 1: GCACTTACGGGTCAACGACGTTATAGCACGCGTATAGCGATTGACAGCGTAGAATGAAGG
DNA 2: CCTTCATTCTACGCTGTCAATCGCTATACGCGTGCTATAACGTCGTTGACCCGTAAGTGC
B19: NRC3_random_hg19_37_o1 (dsDNA)
DNA 1: GCTTTGCCAGGTGCGGTGGCTCAATGCCTGTAATCCGCGATTGACAGCGTAGAATGAAGG
DNA 2: CCTTCATTCTACGCTGTCAATCGCGGATTACAGGCATTGAGCCACCGCACCTGGCAAAGC
B20: NRC3_wobSeed49_DR2_G16A_o1 (dsDNA)
DNA 1: GCCAAACTAGGTCAAAAGGTCAAAGTCCGCTTCCCGGCGATTGACAGCGTAGAATGAAGG
DNA 2: CCTTCATTCTACGCTGTCAATCGCCGGGAAGCGGACTTTGACCTTTTGACCTAGTTTGGC

Key:
[1] = biological target: LXRa:RXRa (Homo sapiens, UniProt Q13133;P19793 full;full); assay: no ligand; PBM; 270 nM : 90 nM RXRa; PBS pH 7.4, 2% milk, 0.02% Triton X-100, 1 mM DTT, BSA, 0.4 mg/ml salmon testes DNA; conditions: tags: His kept;His cleaved; copies: 1;1; label: surface-attached array probe
In short: (§1)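 Random background probes are the reference for binding z-scores. These scores derive from regression-normalized fluorescence on custom Agilent 4×180K protein-binding microarrays incubated 1 h with ligand-free nuclear receptor dimers. Binding was detected with antibodies against each partner (one per run).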

[2] = biological target: RARa:RXRa (Homo sapiens, UniProt P10276;P19793 full;full); assay: as above; conditions: tags: His kept;His cleaved; copies: 1;1; label: surface-attached array probe
In short: as §1

[3] = biological target: RXRa (Homo sapiens, UniProt P19793); assay: no ligand; PBM; 180 nM; PBS pH 7.4, 2% milk, 0.02% Triton X-100, 1 mM DTT, BSA, 0.4 mg/ml salmon testes DNA; conditions: tags: His cleaved; chain copies: 2; label: surface-attached array probe
[4] = biological target: PPARa:RXRa (Homo sapiens, UniProt Q07869;P19793 full;full); assay: no ligand; PBM; 270 nM : 90 nM RXRa; PBS pH 7.4, 2% milk, 0.02% Triton X-100, 1 mM DTT, BSA, 0.4 mg/ml salmon testes DNA; conditions: tags: GST kept;His cleaved; copies: 1;1; label: surface-attached array probe
In short: as §1

[5] = biological target: FXR:RXRa (Homo sapiens, UniProt Q96RI1;P19793 full;full); assay: as above; conditions: tags: His kept;His cleaved; copies: 1;1; label: surface-attached array probe
In short: as §1

[6] = biological target: VDR:RXRa (Homo sapiens, UniProt P11473;P19793 full;full); assay: as above; conditions: tags: His kept;His cleaved; copies: 1;1; label: surface-attached array probe
In short: as §1

[7] = biological target: RARg:RXRa (Homo sapiens, UniProt P13631;P19793 full;full); assay: as above; conditions: tags: His kept;His cleaved; copies: 1;1; label: surface-attached array probe
In short: as §1

[8] = biological target: RARb:RXRa (Homo sapiens, UniProt P10826;P19793 full;full); assay: as above; conditions: tags: His kept;His cleaved; copies: 1;1; label: surface-attached array probe
In short: as §1

[9] = biological target: LXRb:RXRa (Homo sapiens, UniProt P55055;P19793 full;full); assay: as above; conditions: tags: His kept;His cleaved; copies: 1;1; label: surface-attached array probe
In short: as §1

Chain of VDR:RXRa (P11473 whole entry, chain 1 of 2): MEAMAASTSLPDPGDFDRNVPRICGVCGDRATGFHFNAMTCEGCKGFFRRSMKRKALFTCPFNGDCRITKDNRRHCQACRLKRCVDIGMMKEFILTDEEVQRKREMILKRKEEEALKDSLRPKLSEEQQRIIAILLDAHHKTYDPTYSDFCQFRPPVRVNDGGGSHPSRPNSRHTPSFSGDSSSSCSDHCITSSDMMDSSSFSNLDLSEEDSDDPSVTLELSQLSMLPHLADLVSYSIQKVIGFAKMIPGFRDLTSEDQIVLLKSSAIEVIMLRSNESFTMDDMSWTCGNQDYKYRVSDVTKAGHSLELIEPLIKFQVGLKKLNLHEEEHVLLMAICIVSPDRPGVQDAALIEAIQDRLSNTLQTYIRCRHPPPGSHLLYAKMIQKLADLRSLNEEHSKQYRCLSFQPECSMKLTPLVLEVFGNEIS
Chain of VDR:RXRa (P19793 whole entry, chain 2 of 2): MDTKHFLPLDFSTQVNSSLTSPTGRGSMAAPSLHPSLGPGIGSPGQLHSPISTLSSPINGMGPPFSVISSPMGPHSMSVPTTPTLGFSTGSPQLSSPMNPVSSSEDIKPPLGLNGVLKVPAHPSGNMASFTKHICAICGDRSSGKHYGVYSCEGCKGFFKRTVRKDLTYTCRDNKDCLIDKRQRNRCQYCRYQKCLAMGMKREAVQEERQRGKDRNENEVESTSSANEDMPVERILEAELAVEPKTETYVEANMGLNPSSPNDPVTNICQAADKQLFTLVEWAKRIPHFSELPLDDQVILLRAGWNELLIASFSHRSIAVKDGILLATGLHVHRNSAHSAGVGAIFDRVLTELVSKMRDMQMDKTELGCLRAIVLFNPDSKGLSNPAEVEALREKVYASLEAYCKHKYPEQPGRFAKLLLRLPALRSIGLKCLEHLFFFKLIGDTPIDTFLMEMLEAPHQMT
Chain of LXRa:RXRa (Q13133 whole entry, chain 1 of 2): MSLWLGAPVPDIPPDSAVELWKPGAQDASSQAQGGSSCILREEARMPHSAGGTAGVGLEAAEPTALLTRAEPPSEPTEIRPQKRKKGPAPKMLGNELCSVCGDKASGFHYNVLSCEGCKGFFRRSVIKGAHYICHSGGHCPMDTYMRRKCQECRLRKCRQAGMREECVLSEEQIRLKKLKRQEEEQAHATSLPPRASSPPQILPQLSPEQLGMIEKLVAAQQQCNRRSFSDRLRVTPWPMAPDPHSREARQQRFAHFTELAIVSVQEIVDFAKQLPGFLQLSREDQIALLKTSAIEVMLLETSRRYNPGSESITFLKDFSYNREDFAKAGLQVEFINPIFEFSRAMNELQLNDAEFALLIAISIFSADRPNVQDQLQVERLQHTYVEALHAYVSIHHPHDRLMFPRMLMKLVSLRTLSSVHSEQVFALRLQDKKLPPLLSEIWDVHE
Chain of LXRa:RXRa (P19793 whole entry, chain 2 of 2): as the sequence (P19793 whole entry, chain 2 of 2) above
Chain of RXRa (P19793 whole entry): as the sequence (P19793 whole entry, chain 2 of 2) above
Chain of LXRb:RXRa (P55055 whole entry, chain 1 of 2): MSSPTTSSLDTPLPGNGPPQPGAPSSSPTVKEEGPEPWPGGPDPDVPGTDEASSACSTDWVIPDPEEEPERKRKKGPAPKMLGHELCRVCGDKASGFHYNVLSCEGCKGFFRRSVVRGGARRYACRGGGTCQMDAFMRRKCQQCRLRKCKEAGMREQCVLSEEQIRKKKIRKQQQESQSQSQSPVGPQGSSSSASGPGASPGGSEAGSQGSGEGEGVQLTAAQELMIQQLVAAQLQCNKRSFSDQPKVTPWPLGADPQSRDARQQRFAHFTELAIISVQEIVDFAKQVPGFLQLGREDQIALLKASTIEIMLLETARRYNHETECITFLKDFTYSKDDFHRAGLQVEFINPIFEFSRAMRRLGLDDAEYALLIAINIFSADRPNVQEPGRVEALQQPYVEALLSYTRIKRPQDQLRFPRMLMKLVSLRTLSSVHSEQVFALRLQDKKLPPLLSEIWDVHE
Chain of LXRb:RXRa (P19793 whole entry, chain 2 of 2): as the sequence (P19793 whole entry, chain 2 of 2) above
Chain of PPARa:RXRa (Q07869 whole entry, chain 1 of 2): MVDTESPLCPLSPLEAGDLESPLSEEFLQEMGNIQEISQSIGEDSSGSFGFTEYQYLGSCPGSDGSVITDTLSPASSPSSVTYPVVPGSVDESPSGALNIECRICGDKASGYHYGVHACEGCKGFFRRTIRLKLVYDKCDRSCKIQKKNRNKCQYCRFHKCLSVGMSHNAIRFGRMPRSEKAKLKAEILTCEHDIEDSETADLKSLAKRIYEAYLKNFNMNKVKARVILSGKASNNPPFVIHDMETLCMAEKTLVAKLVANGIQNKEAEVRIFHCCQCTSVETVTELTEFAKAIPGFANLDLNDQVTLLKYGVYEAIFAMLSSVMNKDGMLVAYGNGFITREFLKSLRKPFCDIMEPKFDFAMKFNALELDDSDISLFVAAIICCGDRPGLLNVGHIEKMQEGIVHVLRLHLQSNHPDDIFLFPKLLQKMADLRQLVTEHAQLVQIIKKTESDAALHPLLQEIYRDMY
Chain of PPARa:RXRa (P19793 whole entry, chain 2 of 2): as the sequence (P19793 whole entry, chain 2 of 2) above
Chain of RARg:RXRa (P13631 whole entry, chain 1 of 2): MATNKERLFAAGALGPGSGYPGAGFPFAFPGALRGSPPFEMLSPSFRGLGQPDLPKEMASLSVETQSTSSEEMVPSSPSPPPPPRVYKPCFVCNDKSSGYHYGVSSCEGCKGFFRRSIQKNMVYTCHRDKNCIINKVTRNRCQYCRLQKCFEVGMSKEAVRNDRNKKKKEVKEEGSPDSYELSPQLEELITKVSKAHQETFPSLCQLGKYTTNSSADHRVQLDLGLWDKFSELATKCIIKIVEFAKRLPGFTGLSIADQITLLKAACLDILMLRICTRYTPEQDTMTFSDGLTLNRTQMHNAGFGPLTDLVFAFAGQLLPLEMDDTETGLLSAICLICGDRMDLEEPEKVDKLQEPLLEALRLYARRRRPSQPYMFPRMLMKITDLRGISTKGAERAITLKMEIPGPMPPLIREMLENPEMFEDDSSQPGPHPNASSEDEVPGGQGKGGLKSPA
Chain of RARg:RXRa (P19793 whole entry, chain 2 of 2): as the sequence (P19793 whole entry, chain 2 of 2) above
Chain of RARb:RXRa (P10826 whole entry, chain 1 of 2): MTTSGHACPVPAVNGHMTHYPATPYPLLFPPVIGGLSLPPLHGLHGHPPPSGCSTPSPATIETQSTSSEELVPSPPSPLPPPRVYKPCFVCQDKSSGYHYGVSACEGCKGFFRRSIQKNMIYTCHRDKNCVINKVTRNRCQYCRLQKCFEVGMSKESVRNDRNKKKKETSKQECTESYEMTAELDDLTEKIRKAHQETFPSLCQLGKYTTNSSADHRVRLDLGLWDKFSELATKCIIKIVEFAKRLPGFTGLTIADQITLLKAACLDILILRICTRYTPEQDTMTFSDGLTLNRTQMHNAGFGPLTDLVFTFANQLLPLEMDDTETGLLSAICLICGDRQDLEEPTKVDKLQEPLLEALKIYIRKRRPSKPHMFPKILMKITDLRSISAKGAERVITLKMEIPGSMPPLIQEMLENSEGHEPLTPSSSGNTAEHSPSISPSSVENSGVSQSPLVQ
Chain of RARb:RXRa (P19793 whole entry, chain 2 of 2): as the sequence (P19793 whole entry, chain 2 of 2) above
Chain of FXR:RXRa (Q96RI1 whole entry, chain 1 of 2): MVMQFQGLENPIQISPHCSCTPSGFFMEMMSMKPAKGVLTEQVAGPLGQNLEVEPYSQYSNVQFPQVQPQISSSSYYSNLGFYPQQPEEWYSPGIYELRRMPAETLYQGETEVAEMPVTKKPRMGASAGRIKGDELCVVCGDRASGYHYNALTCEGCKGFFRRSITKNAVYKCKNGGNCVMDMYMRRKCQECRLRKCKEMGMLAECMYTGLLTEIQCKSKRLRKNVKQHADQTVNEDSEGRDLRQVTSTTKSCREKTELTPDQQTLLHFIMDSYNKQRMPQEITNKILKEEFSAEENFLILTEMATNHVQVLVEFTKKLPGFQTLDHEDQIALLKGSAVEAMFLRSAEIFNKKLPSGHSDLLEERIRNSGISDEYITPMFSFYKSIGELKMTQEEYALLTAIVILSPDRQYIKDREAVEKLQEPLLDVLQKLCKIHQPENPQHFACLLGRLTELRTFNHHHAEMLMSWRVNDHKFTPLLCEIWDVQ
Chain of FXR:RXRa (P19793 whole entry, chain 2 of 2): as the sequence (P19793 whole entry, chain 2 of 2) above
Chain of RARa:RXRa (P10276 whole entry, chain 1 of 2): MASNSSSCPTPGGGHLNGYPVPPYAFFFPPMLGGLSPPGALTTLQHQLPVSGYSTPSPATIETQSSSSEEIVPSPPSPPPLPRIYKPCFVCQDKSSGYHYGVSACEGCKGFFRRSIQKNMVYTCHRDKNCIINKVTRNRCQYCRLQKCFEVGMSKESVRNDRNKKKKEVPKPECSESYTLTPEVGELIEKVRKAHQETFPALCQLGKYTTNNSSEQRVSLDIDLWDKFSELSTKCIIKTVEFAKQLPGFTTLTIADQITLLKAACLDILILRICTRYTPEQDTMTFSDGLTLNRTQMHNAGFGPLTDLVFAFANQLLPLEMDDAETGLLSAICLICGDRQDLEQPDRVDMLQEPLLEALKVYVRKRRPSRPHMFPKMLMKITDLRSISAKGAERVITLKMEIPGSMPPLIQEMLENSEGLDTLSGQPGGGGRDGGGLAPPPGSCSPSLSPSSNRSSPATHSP
Chain of RARa:RXRa (P19793 whole entry, chain 2 of 2): as the sequence (P19793 whole entry, chain 2 of 2) above

Binder	binding signal [1]	binding signal [2]	binding signal [3]	binding signal [4]	binding signal [5]	binding signal [6]	binding signal [7]	binding signal [8]	binding signal [9]
B1	-0.5 PBM z-score against 500 random probes	-0.41 PBM z-score against 500 random probes							
B2		7.1 PBM z-score against 500 random probes	8.11 PBM z-score against 500 random probes	6.61 PBM z-score against 500 random probes	7.75 PBM z-score against 500 random probes				
B3		7.18 PBM z-score against 500 random probes	7.98 PBM z-score against 500 random probes		8.03 PBM z-score against 500 random probes	7.92 PBM z-score against 500 random probes	7.93 PBM z-score against 500 random probes	5.97 PBM z-score against 500 random probes	5.98 PBM z-score against 500 random probes
B4		7.38 PBM z-score against 500 random probes	7.98 PBM z-score against 500 random probes	6.49 PBM z-score against 500 random probes	8.26 PBM z-score against 500 random probes		8.13 PBM z-score against 500 random probes	6.16 PBM z-score against 500 random probes	
B5		-0.55 PBM z-score against 500 random probes				-0.33 PBM z-score against 500 random probes			
B6		-0.66 PBM z-score against 500 random probes							-0.63 PBM z-score against 500 random probes
B7		-0.05 PBM z-score against 500 random probes		-0.08 PBM z-score against 500 random probes		-0.16 PBM z-score against 500 random probes			
B8	-0.77 PBM z-score against 500 random probes	-1.16 PBM z-score against 500 random probes		-0.78 PBM z-score against 500 random probes			-0.56 PBM z-score against 500 random probes		-0.78 PBM z-score against 500 random probes
B9		3.83 PBM z-score against 500 random probes							3.24 PBM z-score against 500 random probes
B10	3.83 PBM z-score against 500 random probes	3.27 PBM z-score against 500 random probes							
B11		7.93 PBM z-score against 500 random probes	9.59 PBM z-score against 500 random probes	6.95 PBM z-score against 500 random probes	8.59 PBM z-score against 500 random probes	6.5 PBM z-score against 500 random probes	8.18 PBM z-score against 500 random probes	5.48 PBM z-score against 500 random probes	6.07 PBM z-score against 500 random probes
B12		7.46 PBM z-score against 500 random probes	7.82 PBM z-score against 500 random probes						5.85 PBM z-score against 500 random probes
B13	6.98 PBM z-score against 500 random probes	7.09 PBM z-score against 500 random probes	8.9 PBM z-score against 500 random probes	6.95 PBM z-score against 500 random probes	8.53 PBM z-score against 500 random probes		7.79 PBM z-score against 500 random probes	6.03 PBM z-score against 500 random probes	5.92 PBM z-score against 500 random probes
B14	6.63 PBM z-score against 500 random probes	7.21 PBM z-score against 500 random probes	9.14 PBM z-score against 500 random probes	6.97 PBM z-score against 500 random probes	8.51 PBM z-score against 500 random probes		7.74 PBM z-score against 500 random probes	5.75 PBM z-score against 500 random probes	5.92 PBM z-score against 500 random probes
B15		-0.52 PBM z-score against 500 random probes	-0.65 PBM z-score against 500 random probes		-1.02 PBM z-score against 500 random probes	-0.67 PBM z-score against 500 random probes	-0.13 PBM z-score against 500 random probes		
B16	-0.29 PBM z-score against 500 random probes	-0.03 PBM z-score against 500 random probes				0.09 PBM z-score against 500 random probes			
B17	-0.28 PBM z-score against 500 random probes	-0.07 PBM z-score against 500 random probes							
B18		4.03 PBM z-score against 500 random probes							3.79 PBM z-score against 500 random probes
B19		-0.74 PBM z-score against 500 random probes							-1.03 PBM z-score against 500 random probes
B20	7.1 PBM z-score against 500 random probes	8.77 PBM z-score against 500 random probes	9.09 PBM z-score against 500 random probes	7.14 PBM z-score against 500 random probes			8.94 PBM z-score against 500 random probes	6 PBM z-score against 500 random probes	6.34 PBM z-score against 500 random probes
